Experimental findings from patent US20240117303A1, “METHODS AND COMPOSITIONS FOR GENERATING HUMAN MIDBRAIN DOPAMINERGIC NEURONS FROM NEURAL PROGENITOR CELLS” (Trailhead Biosystems Inc., priority 2022, published 2024) are described below.

Several values for one entry are separate records, joined by “and”; a condition that tells them apart may be missing. Equal values may be shown once.

For the test, the system named is stage 3 immature neurons. Description: HD-DoE 8-factor experiment for stage 4 recipe (FIG. 27, 28, 31). It counts as cell-based, human. The conditions noted are these: for impact on expression of NR4A2: 8-factor model / dynamic profile; for expression level of PITX3 in absence of the factor / expression level of NR4A2 in absence of the factor: stage 4 recipe, other factors present; for expression level of PITX3 in absence of the factor: 40 with all factors; for expression level of NR4A2 in absence of the factor: 400 with all factors. As to the method: To further differentiate the cells to a mature neuronal identity, additional HD-DoE experiments were performed on the cells that were cultured in stage 1, stage 2 and stage 3 differentiation media. After 4 days, gene expression of cells in different combinatorial conditions were investigated. At this time, we focused on maximal expression of more mature dopaminergic genes such as NR4A2, PITX3 and TH (Tiklová et al. (2020) Nat Commun. 11:2434; Fiorenzano et al. (2021) Nat Commun., 12:7302). In one model, cells were treated with a combinatorial matrix with eight inputs including CHIR99021, BDNF, GDNF, Rosiglitazone, GW7647, DBZ and heparin.
To assess the impact of elimination of each validated factor identified in Example 5 for the stage 3 and stage 4 recipes, we used dynamic profile analysis and compared the expression level of genes of interest in absence of each finalized factor while others are present.
In the stage 4 recipe, each of six finalized factors were excluded while other factors were present and the expression levels of NR4A2 and PITX3 were assessed compared to the presence of all factors.

In the case of heparin, the “impact on expression of NR4A2” value is “positive regulatory impact”, the “expression level of PITX3 in absence of the factor” value stood at 30 and the “expression level of NR4A2 in absence of the factor” value (shortened to “expression level of NR4A2”) is “did not significantly change”.

B1: BDNF: brain-derived neurotrophic factor, BDNF agonist (protein, UniProt P23560 19-247, looked up)
Neurotrophic factor BDNF …: APMKEANIRGQGGLAYPGVRTHGTLESVNGPKAGSRGLTSLADTFEHVIEELLDEDQKVRPNEENNKDADLYTSRVMLSSQVPLEPPLLFLLEEYKNYLDAANMSMRVRRHSDPARRGELSVCDSISEWVTAADKKTAVDMSGGTVTVLEKVPVSKGQLKQYFYETKCNPMGYTKEGCRGIDKRHWNSQCRTTQSYVRALTMDSKKRIGWRFIRIDTSCVCTLTIKRGR
For the molecule B1, the “impact on expression of NR4A2” value is “positive impact”, the “expression level of PITX3 in absence of the factor” value was determined as 10 and the “expression level of NR4A2” value was 100. The “impact on expression level of PITX3” value (dynamic profile, 8 effectors) was “positive impact”. Besides, where the note is “model maximized for NR4A2, positive regulatory impact, after 4 days”, the factor contribution was 17 and 17.1.

B2: GDNF: glial cell line-derived neurotrophic factor, GDNF agonist (protein, UniProt P39905 78-211, looked up)
Glial cell line-derived …: SPDKQMAVLPRRERNRQAAAANPENSRGKGRRGQRGKNRGCVLTAIHLNVTDLGLGYETKEELIFRYCSGSCDAAETTYDKILKNLSRNRRLVSDKVGQACCRPIAFDDDLSFLDDNLVYHILRKHSAKRCGCI
Turning to B2, the “impact on expression of NR4A2” value is recorded as “positive regulatory impact”, the “expression level of PITX3 in absence of the factor” value came to 25 and the “expression level of NR4A2” value is given as 300.
